Assay results reported in US10287317B2, “Proprotein convertase subtilisin kexin type 9 (PCSK9) allosteric binding ligands to modulate serum low density lipoprotein (LDL) levels” (SRX Cardio, LLC, priority 2013, dated 2019).
Where no end group is shown, it is not given here.

Columns and labels:
[1] = molecular target: T1, PCSK9-WT protein (Homo sapiens, UniProt Q8NBP7); assay: Cellular diI-LDL uptake in HuH7 cells with PCSK9-WT; assay type: cell-based; details: HuH7, 1.0 μg/ml PCSK9-WT, 100 uM peptide (FIG. 2)
T1 construct: V5
T1 sequence (Q8NBP7 153-692): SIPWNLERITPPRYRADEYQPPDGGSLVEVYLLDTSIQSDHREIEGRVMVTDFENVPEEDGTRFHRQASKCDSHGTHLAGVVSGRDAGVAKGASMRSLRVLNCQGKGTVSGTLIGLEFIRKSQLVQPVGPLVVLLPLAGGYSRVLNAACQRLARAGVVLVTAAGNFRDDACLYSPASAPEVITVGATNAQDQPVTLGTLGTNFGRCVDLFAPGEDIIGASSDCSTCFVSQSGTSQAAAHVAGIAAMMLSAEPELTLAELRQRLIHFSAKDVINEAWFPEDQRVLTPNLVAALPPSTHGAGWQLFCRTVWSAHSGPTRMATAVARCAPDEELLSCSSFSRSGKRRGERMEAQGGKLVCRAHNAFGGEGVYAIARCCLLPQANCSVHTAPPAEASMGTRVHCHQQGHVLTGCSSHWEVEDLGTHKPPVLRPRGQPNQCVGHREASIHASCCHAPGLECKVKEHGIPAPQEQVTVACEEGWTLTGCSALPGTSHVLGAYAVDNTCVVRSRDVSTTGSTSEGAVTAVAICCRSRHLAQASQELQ
Procedure: (§1) HuH7 cells were incubated in a 96-well plate for a total of 20 h in the absence (Cnt) or presence of 1.0 μg/ml PCSK9-WT protein alone (WT) or mixed with 100 uM of various SRX peptides. After 16 h, dil-LDL (5 ug/ml) was added to the incubation mixtures. After 4 h, fluorescence was measured (Ex: 520 nm/Em: 575 nm; cutoff: 550 nm). Dil-LDL uptake is calculated as RFU corrected for the number of cells.
(§2) LDL internalization was measured by uptake of a fluorescently tagged LDL molecule (diI-LDL) in the absence of exogenous PCSK9 (Cnt), in the presence of exogenous PCSK9 (normal PCSK9=WT, D374Y mutant PCSK9=DY), or in the presence of PCSK9 and a tested peptide (indicated as SRX##, or SRX if a single peptide results is shown in a graph).
(§3) Cells, such as HepG2, HuH7, FL83B or a cell line transfected with a short-hairpin PCSK9 knockdown sequence such as HepG2/shPCSK9, HuH7/shPCSK9, FL83B/shPCSK9, were seeded at 2×10^4 cells/well in a 96-well plate and cultured at 37 degC in RPMI+10% FBS. After approximately 24 hours, the cell media was aspirated off and replaced with RPMI+3-5 mg/mL LPDS (Lipoprotein Deficient Serum, Millipore) media for further experimentation. Benjannet et al., “Effects of the prosegment and pH on the activity of PCSK9: evidence for additional processing events” J Biol Chem. 285(52): 40965-40978 (2010).
(§4) Peptide activity was assessed by culturing cells with: i) no SRX peptide/PCSK9 protein complex (control, Cnt); ii) PCSK9 protein; and iii) SRX peptide/PCSK9 complex. Various permutations of these experimental conditions were also used, including: i) the addition of wild type PCSK9 (WT); ii) a mutant PCSK9 (e.g., D374Y mutant PCSK9, DY); iii) various SRX peptides and/or PCSK9 at the same concentration and/or combinations; iv) various SRX peptides and/or PCSK9 at different concentrations and/or combinations; v) the use of different cells, as mentioned above, with or without a transfected short-hairpin sequence; vi) a pre-incubation of the PCSK9 and SRX peptide (e.g., 1, hour, 2 hours, 3 hours, 4 hours etc.); vii) various temperatures including, but not limited to, body temperature (e.g., 37° C.), supraphysiologic temperature (e.g., 39° C.); and viii) with/without agitation (e.g., shaker or gentle periodic vortexing).
(§5) Cells were cultured using one of the combinations of conditions described in the preceding paragraph for 16 hours. After 16 hours, a quantity of diI-LDL (Low density lipoprotein coupled with 1,1′-dioctadecyl-3,3,3′,3′-tetramethylindocarbocyanine perchlorate) needed to bring the media concentration to 5 ug/mL of diI-LDL was added to the culture well and cells continued to be cultured under these new conditions for 4 additional hours. At the end of the 4-hour incubation period (20 total hours of cell culture), the cellular uptake was halted with the addition of 4% formaldehyde in 10 uM Hoechst 33342 in a solvent such as deionized autoclaved water or PBS, and specimens were incubated at 20° C. for 20 minutes. Cell specimens were rinsed twice with PBS and then fluorescence measured with excitation at 360 nm and emission detected at 460 nm to measure DNA content. Cell specimens were then be incubated with a 0.1% SDS in a 0.1 N NaOH solution while being shaken for 10 minutes. Fluorescence of the diI-LDL in the specimens were quantified using excitation at 530 nm and resulting emission at 580 nm.
Fluorescence measurements of diI-LDLR were normalized to estimated cell numbers, determined from the Hoechst fluorescence. Data was analyzed for the different experimental conditions and reported as percentage relative fluorescence units (RFU) of the Cnt specimen. Percent inhibition was calculated as the difference in RFU of a peptide exposed specimen to the RFU of PCSK9-no peptide, divided by the RFU difference in PCSK9-no peptide to RFU of Cnt specimen, also expressed as [(SRX:RFU)−(PCSK9-no peptide:RFU)]/[(PCSK9-no peptide:RFU)−(Cnt:RFU)]×100.

[2] = molecular target: PCSK9-D374Y protein (Homo sapiens, UniProt Q8NBP7, D374Y); assay: Cellular diI-LDL uptake in HuH7 cells with PCSK9-D374Y; assay type: cell-based
PCSK9-D374Y protein, sequence (Q8NBP7 153-692 D374Y): as the sequence (Q8NBP7 153-692) above, with D222Y counted along it
Procedure: as §1, with “0.5” for “1.0”, “PCSK9-D374Y” for “PCSK9-WT”, “(DY)” for “(WT)”
as §1, with “0.5” for “1.0”, “PCSK9 GOF-D374Y” for “PCSK9-WT”, “(DY)” for “(WT)”, “increasing concentrations” for “100 uM”
as §2, §3, §4, §5
Fluorescence measurements of diI-LDLR were normalized to estimated cell numbers, determined from the Hoechst fluorescence. […]

[3] = molecular target: T2, normal PCSK9 (WT) (Homo sapiens, UniProt Q8NBP7); assay: Cellular diI-LDL uptake in HepG2 cells with WT PCSK9; assay type: cell-based; details: HepG2, WT 1.2 ug/ml, pre-incubated 3 hrs at 37 C, dose dependent manner (FIG. 6)
T2 sequence (Q8NBP7 153-692): as the sequence (Q8NBP7 153-692) above
Procedure: (§6) After 16 h, dil-LDL (5 ug/ml) was added to the incubation mixtures. After 4 h, fluorescence was measured (Ex: 520 nm/Em: 575 nm; cutoff: 550 nm). Dil-LDL uptake is calculated as RFU corrected for the number of cells. The PCSK9 and −/+SRX55 [SEQ ID NO: 2] mixtures were pre-incubated for 3 hrs at 37 C prior to addition to the cells.
as §2, with “graph). […]” for “graph).”
(§7) Peptide activity was assessed by culturing cells with: i) no SRX peptide/PCSK9 protein complex (control, Cnt); ii) PCSK9 protein; and iii) SRX peptide/PCSK9 complex. […]
(§8) Cells were cultured using one of the combinations of conditions described in the preceding paragraph for 16 hours. After 16 hours, a quantity of diI-LDL (Low density lipoprotein coupled with 1,1′-dioctadecyl-3,3,3′,3′-tetramethylindocarbocyanine perchlorate) needed to bring the media concentration to 5 ug/mL of diI-LDL was added to the culture well and cells continued to be cultured under these new conditions for 4 additional hours. […] Fluorescence of the diI-LDL in the specimens were quantified using excitation at 530 nm and resulting emission at 580 nm. […]

[4] = molecular target: D374Y PCSK9 (DY) (Homo sapiens, UniProt Q8NBP7, D374Y); assay: Cellular diI-LDL uptake in FL-83B cells with D374Y PCSK9; assay type: cell-based, mouse; details: FL83B, D374Y 0.6 ug/ml, pre-incubated 3 hrs at 37 C, dose dependent manner (FIG. 7)
D374Y PCSK9 (DY), sequence (Q8NBP7 153-692 D374Y): as the sequence (Q8NBP7 153-692) above, with D222Y counted along it
Procedure: as §6
as §2, with “graph). […]” for “graph).”
as §7, §8

[5] = molecular target: T2, normal PCSK9 (WT); assay: Cellular diI-LDL uptake in FL-83B cells with WT PCSK9; assay type: cell-based, mouse; details: FL83B, WT 1.2 ug/ml, pre-incubated 3 hrs at 37 C, dose dependent manner (FIG. 7)
Procedure: as §6
as §2, with “graph). […]” for “graph).”
as §7, §8

LDL internalization (dil-LDL % uptake vs Cnt) [1]: positively modulated (increased) | LDL internalization (dil-LDL % uptake vs Cnt) ([2]; HuH7, 0.5 μg/ml PCSK9-D374Y, 100 uM peptide (FIG. 3)): positively modulated (increased) | LDL internalization (dil-LDL % uptake vs Cnt) ([2]; HuH7, 0.5 μg/ml PCSK9 GOF-D374Y, increasing concentrations of peptide (FIG. 4)): positively modulated (increased) | percent inhibition (dil-LDL uptake) ([2]; HuH7, PCSK9 GOF-D374Y, peptide at 11.1 uM (FIG. 4 bottom panel)): ~0% | LDL internalization (dil-LDL % uptake vs Cnt) [3]: positively modulated (increased) | LDL internalization (dil-LDL % uptake vs Cnt) [4]: positively modulated (increased) | LDL internalization (dil-LDL % uptake vs Cnt) [5]: positively modulated (increased)
Substance: Val-Tyr-Val-Arg-Phe-Trp (VYVRFW; not fully specified (C-terminus); printed as Val-Tyr-Val-Arg-Phe-Trp) [Compound 1]
dose dependence of positive modulation of LDL internalization ([2]; HuH7, PCSK9 GOF-D374Y (FIG. 4)): positive modulation in a dose dependent manner
